Assay results: paper PMC5103362 (Autophagy, 2016)

Molecular target: the molecule itself
Assay: SEC-MALS; Atg38 full-length, MIT domain and deletion variants alone on S75 10/30; 20 mM Tris pH 7.9, 300 mM NaCl, 1 mM TCEP

Protein | stoichiometry N
Atg38 capΔ (123 to 181 deleted), recombinant (natural protein, S. cerevisiae, UniProt Q05789 1-226, looked up, GST fusions were eluted with glutathione or cut with TEV as needed; likely cut for SEC-MALS; source: E. coli, purified (Glutathione Sepharose, S75)) MSTLAEVYTIIEDAEQECRKGDFTNAKAKYQEAIEVLGPQNENLSQNKLSSDVTQAIDLLKQDITAKIQELELLIEKQSSEENNIGMVNNNMLIGSVILNNKSPINGISNARNWDNPAYQDTFKEYGMKIDEITKENKKLANEIGRLRERWDSLVESAKQRRDKQKN | 2
Atg38 tailΔ (210 to 226 deleted), recombinant (domain or fragment, S. cerevisiae, UniProt Q05789 1-209, looked up, Atg38, S. cerevisiae; GST fusions were eluted with glutathione or cut with TEV as needed; likely cut for SEC-MALS; source: E. coli, purified (Glutathione Sepharose, S75)) MSTLAEVYTIIEDAEQECRKGDFTNAKAKYQEAIEVLGPQNENLSQNKLSSDVTQAIDLLKQDITAKIQELELLIEKQSSEENNIGMVNNNMLIGSVILNNKSPINGISNARNWDNPAYQDTLSPINDPLLMSILNRLQFNLNNDIQLKTEGGKNSKNSEMKINLRLEQFKKELVLYEQKKFKEYGMKIDEITKENKKLANEIGRLRER | 2
Atg38 stalkΔ (182 to 209 deleted), recombinant (natural protein, S. cerevisiae, UniProt Q05789 1-226, looked up, GST fusions were eluted with glutathione or cut with TEV as needed; likely cut for SEC-MALS; source: E. coli, purified (Glutathione Sepharose, S75)) MSTLAEVYTIIEDAEQECRKGDFTNAKAKYQEAIEVLGPQNENLSQNKLSSDVTQAIDLLKQDITAKIQELELLIEKQSSEENNIGMVNNNMLIGSVILNNKSPINGISNARNWDNPAYQDTLSPINDPLLMSILNRLQFNLNNDIQLKTEGGKNSKNSEMKINLRLEQFKKELVLYEQKKWDSLVESAKQRRDKQKN | 2
